Assay results published in patent US20220056072A1.

Tests used:
[1] = target: High Capacity NeutrAvidin Agarose Resin (UniProt P02701); test: pull-down on NeutrAvidin Agarose resin, SDS-PAGE of the fractions
[2] = target: High Capacity NeutrAvidin Agarose Resin (UniProt P02701); test: pull-down on NeutrAvidin Agarose resin, 1 uM protein, 2 hrs at 4 C; bound fraction from A280 of flow-through and wash

UniProt P02701, sequence (P02701 25-152): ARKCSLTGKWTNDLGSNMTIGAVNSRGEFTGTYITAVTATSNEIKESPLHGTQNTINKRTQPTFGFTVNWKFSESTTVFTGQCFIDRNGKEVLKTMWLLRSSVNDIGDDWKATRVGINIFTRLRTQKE

Substance | percent unbound [1] [%] | binding efficiency (percent of protein bound to resin) [2] [%]
IPL biotin-labeled mRuby3 | 35 | 65
unlabeled mRuby3 | – | 10
